Test results reported in US20180009871A1 (INTARCIA THERAPEUTICS, published 2018).
Where no end group is shown, it is not given here. [ ]: non-standard residue; d: D form. Aib = CC(C)(N)C(=O)O

Experiments:
[1] = molecular target: human glucagon receptor (GCGR) (human, UniProt P47871 26-477); test: cell-based or functional assay
[2] = molecular target: human GLP-1 receptor (GLP-1R) (human, UniProt P43220 24-463); test: cell-based or functional assay
Chain of human GLP-1 receptor (GLP-1R) (P43220 24-463): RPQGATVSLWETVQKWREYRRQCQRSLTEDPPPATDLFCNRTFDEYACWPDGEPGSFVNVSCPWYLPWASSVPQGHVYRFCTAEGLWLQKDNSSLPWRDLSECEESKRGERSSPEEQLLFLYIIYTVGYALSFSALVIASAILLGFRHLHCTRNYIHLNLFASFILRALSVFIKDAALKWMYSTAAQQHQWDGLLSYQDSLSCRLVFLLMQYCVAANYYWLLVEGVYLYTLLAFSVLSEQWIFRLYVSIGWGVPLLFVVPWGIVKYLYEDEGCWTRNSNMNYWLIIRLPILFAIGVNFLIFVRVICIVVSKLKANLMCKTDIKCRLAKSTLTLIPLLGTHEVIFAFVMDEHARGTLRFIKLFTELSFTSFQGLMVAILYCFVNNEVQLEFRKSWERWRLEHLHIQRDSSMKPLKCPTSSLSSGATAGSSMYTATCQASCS

Binder	hGCGR pEC50 (cAMP) [1] [pEC50]	hGLP1 pEC50 (cAMP) [2] [pEC50]
YSHGTFTSDYSKYLDQARAQEFVKWLEDEPSSGAPPPS-OH [Compound A44]	11.9	< 9
YTHGTFTSDYSKWLDSARAQEFVKWLEDEPSSGAPPPS-OH [Compound A39]	9.4	< 9
YSHGTFTSDYSKYLD[Aib]KRAQEFV[Aib]WLEDEKRNKNPPPS-OH (N-terminus assumed; SMILES CC(C)C[C@H](NC(=O)[C@H](Cc1ccc(O)cc1)NC(=O)[C@H](CCCCN)NC(=O)[C@H](CO)NC(=O)[C@H](Cc1ccc(O)cc1)NC(=O)[C@H](CC(=O)O)NC(=O)[C@H](CO)NC(=O)[C@@H](NC(=O)[C@H](Cc1ccccc1)NC(=O)[C@@H](NC(=O)CNC(=O)[C@H](Cc1c[nH]cn1)NC(=O)[C@H](CO)NC(=O)[C@@H](N)Cc1ccc(O)cc1)[C@@H](C)O)[C@@H](C)O)C(=O)N[C@@H](CC(=O)O)C(=O)NC(C)(C)C(=O)N[C@@H](CCCCN)C(=O)N[C@@H](CCCNC(=N)N)C(=O)N[C@@H](C)C(=O)N[C@@H](CCC(N)=O)C(=O)N[C@@H](CCC(=O)O)C(=O)N[C@@H](Cc1ccccc1)C(=O)N[C@H](C(=O)NC(C)(C)C(=O)N[C@@H](Cc1c[nH]c2ccccc12)C(=O)N[C@@H](CC(C)C)C(=O)N[C@@H](CCC(=O)O)C(=O)N[C@@H](CC(=O)O)C(=O)N[C@@H](CCC(=O)O)C(=O)N[C@@H](CCCCN)C(=O)N[C@@H](CCCNC(=N)N)C(=O)N[C@@H](CC(N)=O)C(=O)N[C@@H](CCCCN)C(=O)N[C@@H](CC(N)=O)C(=O)N1CCC[C@H]1C(=O)N1CCC[C@H]1C(=O)N1CCC[C@H]1C(=O)N[C@@H](CO)C(=O)O)C(C)C) [Compound A48]	12.9	< 9
YSHGTFTSDHSKWLDSARAQEFVKWLEDEPSSGAPPPS-OH [Compound A40]	10.1	< 9
YTHGTFTSDYSKWLD[Aib]ARAQEFV[Aib]WLEDEPSSGAPPPS-OH (N-terminus assumed; SMILES CC(C)C[C@H](NC(=O)[C@H](Cc1c[nH]c2ccccc12)NC(=O)[C@H](CCCCN)NC(=O)[C@H](CO)NC(=O)[C@H](Cc1ccc(O)cc1)NC(=O)[C@H](CC(=O)O)NC(=O)[C@H](CO)NC(=O)[C@@H](NC(=O)[C@H](Cc1ccccc1)NC(=O)[C@@H](NC(=O)CNC(=O)[C@H](Cc1c[nH]cn1)NC(=O)[C@@H](NC(=O)[C@@H](N)Cc1ccc(O)cc1)[C@@H](C)O)[C@@H](C)O)[C@@H](C)O)C(=O)N[C@@H](CC(=O)O)C(=O)NC(C)(C)C(=O)N[C@@H](C)C(=O)N[C@@H](CCCNC(=N)N)C(=O)N[C@@H](C)C(=O)N[C@@H](CCC(N)=O)C(=O)N[C@@H](CCC(=O)O)C(=O)N[C@@H](Cc1ccccc1)C(=O)N[C@H](C(=O)NC(C)(C)C(=O)N[C@@H](Cc1c[nH]c2ccccc12)C(=O)N[C@@H](CC(C)C)C(=O)N[C@@H](CCC(=O)O)C(=O)N[C@@H](CC(=O)O)C(=O)N[C@@H](CCC(=O)O)C(=O)N1CCC[C@H]1C(=O)N[C@@H](CO)C(=O)N[C@@H](CO)C(=O)NCC(=O)N[C@@H](C)C(=O)N1CCC[C@H]1C(=O)N1CCC[C@H]1C(=O)N1CCC[C@H]1C(=O)N[C@@H](CO)C(=O)O)C(C)C) [Compound A35]	13.2	< 9
YSHGTFTSDYSKYLD[Aib]KRAQEFV[Aib]WLEDEKRNKNPPS-OH (N-terminus assumed; SMILES CC(C)C[C@H](NC(=O)[C@H](Cc1ccc(O)cc1)NC(=O)[C@H](CCCCN)NC(=O)[C@H](CO)NC(=O)[C@H](Cc1ccc(O)cc1)NC(=O)[C@H](CC(=O)O)NC(=O)[C@H](CO)NC(=O)[C@@H](NC(=O)[C@H](Cc1ccccc1)NC(=O)[C@@H](NC(=O)CNC(=O)[C@H](Cc1c[nH]cn1)NC(=O)[C@H](CO)NC(=O)[C@@H](N)Cc1ccc(O)cc1)[C@@H](C)O)[C@@H](C)O)C(=O)N[C@@H](CC(=O)O)C(=O)NC(C)(C)C(=O)N[C@@H](CCCCN)C(=O)N[C@@H](CCCNC(=N)N)C(=O)N[C@@H](C)C(=O)N[C@@H](CCC(N)=O)C(=O)N[C@@H](CCC(=O)O)C(=O)N[C@@H](Cc1ccccc1)C(=O)N[C@H](C(=O)NC(C)(C)C(=O)N[C@@H](Cc1c[nH]c2ccccc12)C(=O)N[C@@H](CC(C)C)C(=O)N[C@@H](CCC(=O)O)C(=O)N[C@@H](CC(=O)O)C(=O)N[C@@H](CCC(=O)O)C(=O)N[C@@H](CCCCN)C(=O)N[C@@H](CCCNC(=N)N)C(=O)N[C@@H](CC(N)=O)C(=O)N[C@@H](CCCCN)C(=O)N[C@@H](CC(N)=O)C(=O)N1CCC[C@H]1C(=O)N1CCC[C@H]1C(=O)N[C@@H](CO)C(=O)O)C(C)C) [Compound A47]	11.5	< 9
YSHGTFTSDHSKWLD[Aib]ARAQEFV[Aib]WLEDEPSSGAPPPS-OH (N-terminus assumed; SMILES CC(C)C[C@H](NC(=O)[C@H](Cc1c[nH]c2ccccc12)NC(=O)[C@H](CCCCN)NC(=O)[C@H](CO)NC(=O)[C@H](Cc1c[nH]cn1)NC(=O)[C@H](CC(=O)O)NC(=O)[C@H](CO)NC(=O)[C@@H](NC(=O)[C@H](Cc1ccccc1)NC(=O)[C@@H](NC(=O)CNC(=O)[C@H](Cc1c[nH]cn1)NC(=O)[C@H](CO)NC(=O)[C@@H](N)Cc1ccc(O)cc1)[C@@H](C)O)[C@@H](C)O)C(=O)N[C@@H](CC(=O)O)C(=O)NC(C)(C)C(=O)N[C@@H](C)C(=O)N[C@@H](CCCNC(=N)N)C(=O)N[C@@H](C)C(=O)N[C@@H](CCC(N)=O)C(=O)N[C@@H](CCC(=O)O)C(=O)N[C@@H](Cc1ccccc1)C(=O)N[C@H](C(=O)NC(C)(C)C(=O)N[C@@H](Cc1c[nH]c2ccccc12)C(=O)N[C@@H](CC(C)C)C(=O)N[C@@H](CCC(=O)O)C(=O)N[C@@H](CC(=O)O)C(=O)N[C@@H](CCC(=O)O)C(=O)N1CCC[C@H]1C(=O)N[C@@H](CO)C(=O)N[C@@H](CO)C(=O)NCC(=O)N[C@@H](C)C(=O)N1CCC[C@H]1C(=O)N1CCC[C@H]1C(=O)N1CCC[C@H]1C(=O)N[C@@H](CO)C(=O)O)C(C)C) [Compound A36]	10.2	< 9
YTHGTFTSDYSKWLDSKRAQEFVKWLEDEPSSGAPPPS-OH [Compound A42]	9.4	< 9
YSHGTFTSDYSKWLDSARAQEFVKWLEDEPSSGAPPPS-OH [Compound A38]	13.7	< 9
YTHGTFTSDHSKWLDEARAQEFVKWLEDEPSSGAPPPS-OH [Compound A41]	9.2	< 9
YSHGTFTSDYSKYLD[Aib]KRAQEFV[Aib]WLEDEKRNKPPPA-OH (N-terminus assumed; SMILES CC(C)C[C@H](NC(=O)[C@H](Cc1ccc(O)cc1)NC(=O)[C@H](CCCCN)NC(=O)[C@H](CO)NC(=O)[C@H](Cc1ccc(O)cc1)NC(=O)[C@H](CC(=O)O)NC(=O)[C@H](CO)NC(=O)[C@@H](NC(=O)[C@H](Cc1ccccc1)NC(=O)[C@@H](NC(=O)CNC(=O)[C@H](Cc1c[nH]cn1)NC(=O)[C@H](CO)NC(=O)[C@@H](N)Cc1ccc(O)cc1)[C@@H](C)O)[C@@H](C)O)C(=O)N[C@@H](CC(=O)O)C(=O)NC(C)(C)C(=O)N[C@@H](CCCCN)C(=O)N[C@@H](CCCNC(=N)N)C(=O)N[C@@H](C)C(=O)N[C@@H](CCC(N)=O)C(=O)N[C@@H](CCC(=O)O)C(=O)N[C@@H](Cc1ccccc1)C(=O)N[C@H](C(=O)NC(C)(C)C(=O)N[C@@H](Cc1c[nH]c2ccccc12)C(=O)N[C@@H](CC(C)C)C(=O)N[C@@H](CCC(=O)O)C(=O)N[C@@H](CC(=O)O)C(=O)N[C@@H](CCC(=O)O)C(=O)N[C@@H](CCCCN)C(=O)N[C@@H](CCCNC(=N)N)C(=O)N[C@@H](CC(N)=O)C(=O)N[C@@H](CCCCN)C(=O)N1CCC[C@H]1C(=O)N1CCC[C@H]1C(=O)N1CCC[C@H]1C(=O)N[C@@H](C)C(=O)O)C(C)C) [Compound A45]	11.7	< 9
YSHGTFTSDYSKYLDSARAQEFVKWLEDEPSSGAPPPS-OH [Compound A37]	13	< 9
YSHGTFTSDYSKYLDKARAQEFVKWLEDEPSSGAPPPS-OH [Compound A43]	11.8	< 9
YSHGTFTSDYSKYLD[Aib]KRAQEFV[Aib]WLEDEKRNKPPIA-OH (N-terminus assumed; SMILES CC[C@H](C)[C@H](NC(=O)[C@@H]1CCCN1C(=O)[C@@H]1CCCN1C(=O)[C@H](CCCCN)NC(=O)[C@H](CC(N)=O)NC(=O)[C@H](CCCNC(=N)N)NC(=O)[C@H](CCCCN)NC(=O)[C@H](CCC(=O)O)NC(=O)[C@H](CC(=O)O)NC(=O)[C@H](CCC(=O)O)NC(=O)[C@H](CC(C)C)NC(=O)[C@H](Cc1c[nH]c2ccccc12)NC(=O)C(C)(C)NC(=O)[C@@H](NC(=O)[C@H](Cc1ccccc1)NC(=O)[C@H](CCC(=O)O)NC(=O)[C@H](CCC(N)=O)NC(=O)[C@H](C)NC(=O)[C@H](CCCNC(=N)N)NC(=O)[C@H](CCCCN)NC(=O)C(C)(C)NC(=O)[C@H](CC(=O)O)NC(=O)[C@H](CC(C)C)NC(=O)[C@H](Cc1ccc(O)cc1)NC(=O)[C@H](CCCCN)NC(=O)[C@H](CO)NC(=O)[C@H](Cc1ccc(O)cc1)NC(=O)[C@H](CC(=O)O)NC(=O)[C@H](CO)NC(=O)[C@@H](NC(=O)[C@H](Cc1ccccc1)NC(=O)[C@@H](NC(=O)CNC(=O)[C@H](Cc1c[nH]cn1)NC(=O)[C@H](CO)NC(=O)[C@@H](N)Cc1ccc(O)cc1)[C@@H](C)O)[C@@H](C)O)C(C)C)C(=O)N[C@@H](C)C(=O)O) [Compound A46]	12.5	< 9
